“And” between values parts separate entries of the source, which are not always exact repeats. Equal values may be shown once.
Assays:
Conditions in all cases: remark: other sources report otherwise
[1] = target: T1, Human kallikrein (analyte in the Biacore assay) (human), P03952; experiment: SPR, Biacore T200, 25 C, HBS-EP+; antibody captured through Fc, human kallikrein as analyte; full length antibody
[2] = target: T1, Human kallikrein (analyte in the …); experiment: SPR, Biacore T200, 25 C, HBS-EP+; antibody captured on the chip through Fc, human kallikrein (activated, purified from human plasma) as analyte
[3] = target: T1, Human kallikrein (analyte in the …); experiment: as above; remark: listed apart in the source

T1 sequence (P03952 20-638 limits assumed): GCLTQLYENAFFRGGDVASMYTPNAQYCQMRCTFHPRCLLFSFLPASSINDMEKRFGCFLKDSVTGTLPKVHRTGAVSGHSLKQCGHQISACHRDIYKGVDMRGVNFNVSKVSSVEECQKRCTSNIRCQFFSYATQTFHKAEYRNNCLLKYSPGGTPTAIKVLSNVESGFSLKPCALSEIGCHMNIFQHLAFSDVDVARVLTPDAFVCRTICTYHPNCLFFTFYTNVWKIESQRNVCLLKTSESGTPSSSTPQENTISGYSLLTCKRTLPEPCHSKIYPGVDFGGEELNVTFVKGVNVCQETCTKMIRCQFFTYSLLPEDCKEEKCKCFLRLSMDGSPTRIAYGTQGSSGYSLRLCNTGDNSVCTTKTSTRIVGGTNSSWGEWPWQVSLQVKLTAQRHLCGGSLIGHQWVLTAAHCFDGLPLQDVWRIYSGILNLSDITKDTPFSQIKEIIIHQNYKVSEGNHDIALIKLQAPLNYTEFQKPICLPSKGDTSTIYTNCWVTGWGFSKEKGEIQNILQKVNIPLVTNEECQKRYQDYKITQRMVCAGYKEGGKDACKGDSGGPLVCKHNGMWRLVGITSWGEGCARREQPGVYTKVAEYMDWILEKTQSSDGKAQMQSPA

- Kd [1]: 1.74 nM
- koff [2]: 0.000347 s⁻¹
- kon [2]: 199000 M⁻¹ s⁻¹
- Kd [3]: 6.73 nM and 5.76 nM and 5.54 nM
- koff [3]: 0.000315 s⁻¹ and 0.000297 s⁻¹ and 0.000291 s⁻¹
- kon [3]: 51500 M⁻¹ s⁻¹ and 52600 M⁻¹ s⁻¹ and 46700 M⁻¹ s⁻¹
B1: Lanadelumab (full length anti-pKal antibody) (antibody, IgG1, V domains shown)
VH: EVQLLESGGGLVQPGGSLRLSCAASGFTFSHYIMMWVRQAPGKGLEWVSGIYSSGGITVYADSVKGRFTISRDNSKNTLYLQMNSLRAEDTAVYYCAYRRIGVPRRDEFDIWGQGTMVTVSS
VL: DIQMTQSPSTLSASVGDRVTITCRASQSISSWLAWYQQKPGKAPKLLIYKASTLESGVPSRFSGSGSGTEFTLTISSLQPDDFATYYCQQYNTYWTFGQGTKVEIK
